# In publication PMC8804906, “Crystal structure of Pseudomonas aeruginosa FabB C161A, a template for structure-based design for new antibiotics” (F1000Research, 2021):
# Molecular target: the molecule itself
# Assay: crystal structure; PaFabB C161A lacking the His-tag (9-23 mg/mL) in 20 mM Tris-HCl, 150 mM NaCl, 1 mM DTT, pH 7.4; sitting drop, 20°C; 0.2 M sodium iodide, 0.1 M Bis-Tris propane pH 7.5, PEG 3350, ethylene glycol; space group C 2 2 21, 2 protein molecules in the asymmetric unit; 1.3 Å
protein,measurement,value
"Pseudomonas aeruginosa FabB C161A (3-oxoacyl-[acyl-carrier-protein] synthase 1), without His-tag (enzyme, FabB (3-oxoacyl-[acyl-carrier-protein] synthase 1) of P. aeruginosa PA14, ORF PA14_43690, with the point mutation C161A; gene synthesised and cloned NdeI/BamHI into pET-28a(+)-TEV; 808 protein residues modelled in the dimer; also called PaFabB C161A; cleaved PaFabB C161A; not shown: His6, N-terminal, cleaved) MRRVVITGLGIVSCLGNDKDTVSANLRAGRPGIRFNPSYAEMGLRSHVSGSVDLNLEELIDRKVFRFMGDAAAYAYLAMEQAIKDSGLTPEQISNPRTGLIAGSGGASTLNQMEAIDTLREKGVKRIGPYRVTRTMGSTVSACLATPFQIKGVNYSISSAAATSAHCIGQAMEQIQLGKQDVVFAGGGEEEHWSQSCLFDAMGALSTQYNETPEKASRAYDAKRDGFVIAGGGGMVVVEELEHALKRGAKIYAEIVGYGATSDGYDMVAPSGEGAIRCMQQALATVDAPIDYLNTHGTSTPVGDVAEIRGVREVFGDKAPAISSTKSLSGHSLGAAGVHEAIYCLLMMEGGFIAGSANIDELDPEVADLPILRETRENAKLDTVMSNSFGFGGTNATLVLKRWQG",stoichiometry N,2
